Data reported in patent US20210246166A1 (Bayer, published 2021).
Blank lines part the entries; values can stand above or below the binder they belong to. Numbered stars: 1 amine (or outer) side, 2 acyl side, 3 side chain; on linkers, the order of the positions; unused ones are H or OH. Bridge positions count the residues as written; N and C are the ends. Square brackets hold non-standard residues; d marks the D form. Primed or numbered codes have the meaning given here. Ends that are not written are not given here. * marks the point of attachment. X13 = (2S)‑2‑amino‑3‑(1-methylcyclopropyl)propanoic acid, CC1(C[C@H](N[*:1])C(=O)[*:2])CC1; Tranexamic″ = tranexamic acid, NC[C@H]1CC[C@@H](C(=O)*)CC1; Phe(2,5-diF) = O=C([C@H](Cc1cc(F)ccc1F)N[*:1])[*:2]; Oic = O=C(O)[C@@H]1C[C@@H]2CCCC[C@@H]2N1; tBuAla = CC(C)(C)C[C@H](N)C(=O)O; Pen = CC(C)(S)[C@H](N)C(=O)O; ΔPro = O=C(O)[C@@H]1C=CCN1; NMeC = CN[C@@H](CS)C(=O)O; Nva = CCC[C@H](N)C(=O)O; Ac4c = NC1(C(=O)O)CCC1; PEG2 = NCCOCCOCCC(=O)O; Sar = CNCC(=O)O

Key:
[1] = molecular target: T1, recombinant rat MASP1 active protease (amino acids 302-704, C-terminal His Tag) (rat, UniProt Q8CHN8 302-704); assay: cell-based or functional assay
T1 sequence: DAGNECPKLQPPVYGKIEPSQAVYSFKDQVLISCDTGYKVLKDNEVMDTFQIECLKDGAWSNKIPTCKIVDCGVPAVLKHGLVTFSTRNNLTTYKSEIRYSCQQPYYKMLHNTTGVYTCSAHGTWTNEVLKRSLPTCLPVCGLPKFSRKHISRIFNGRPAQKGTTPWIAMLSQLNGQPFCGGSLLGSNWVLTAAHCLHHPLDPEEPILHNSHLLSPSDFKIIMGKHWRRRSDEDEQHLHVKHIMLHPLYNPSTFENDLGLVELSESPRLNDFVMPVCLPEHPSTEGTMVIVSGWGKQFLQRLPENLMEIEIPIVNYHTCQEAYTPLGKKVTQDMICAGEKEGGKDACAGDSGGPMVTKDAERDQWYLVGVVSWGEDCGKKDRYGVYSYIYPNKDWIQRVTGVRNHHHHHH

[2] = molecular target: recombinant rat MASP2 active protease (amino acids 296-685, C-terminal His Tag) (rat, UniProt Q9JJS8 296-685); assay: cell-based or functional assay
Sequence of recombinant rat MASP2 active protease (amino acids 296-685, C-terminal His Tag) (Q9JJS8 other isoform, or with tags, fused parts or gaps limits assumed): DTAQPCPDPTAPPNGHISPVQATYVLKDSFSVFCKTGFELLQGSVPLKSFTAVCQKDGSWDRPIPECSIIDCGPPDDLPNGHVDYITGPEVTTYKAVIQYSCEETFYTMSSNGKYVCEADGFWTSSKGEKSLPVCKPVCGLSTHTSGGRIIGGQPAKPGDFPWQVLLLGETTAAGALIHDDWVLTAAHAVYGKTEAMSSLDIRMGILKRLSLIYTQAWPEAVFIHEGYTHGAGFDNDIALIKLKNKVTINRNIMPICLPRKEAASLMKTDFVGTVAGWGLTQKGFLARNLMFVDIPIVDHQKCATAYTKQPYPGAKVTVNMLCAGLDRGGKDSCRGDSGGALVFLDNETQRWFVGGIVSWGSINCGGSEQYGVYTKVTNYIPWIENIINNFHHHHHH

rat MASP1 IC50 [1]: 1000 nM | rat MASP2 IC50 [2]: 1000 nM
B1: Example 237: AIC+SRSL-(L-dehydroproline)-(Oic)-I-(Pen)+IPD-OH (peptide)
peptide: AICSRSL[ΔPro][Oic]I[Pen]IPD-OH
modifications: disulfide 3-11; N-terminus assumed
SMILES: CC[C@H](C)[C@H](NC(=O)[C@H](C)N)C(=O)N[C@H]1CSSC(C)(C)[C@@H](C(=O)N[C@H](C(=O)N2CCC[C@H]2C(=O)N[C@@H](CC(=O)O)C(=O)O)[C@@H](C)CC)NC(=O)[C@H]([C@@H](C)CC)NC(=O)[C@@H]2C[C@@H]3CCCC[C@@H]3N2C(=O)[C@@H]2C=CCN2C(=O)[C@H](CC(C)C)NC(=O)[C@H](CO)NC(=O)[C@H](CCCNC(=N)N)NC(=O)[C@H](CO)NC1=O

rat MASP1 IC50 [1]: 270 nM | rat MASP2 IC50 [2]: 308 nM
B4: Example 281: ((N-Me)G)-IC+SRSLPPIC+IPD-OH (peptide)
peptide: [Sar]ICSRSLPPICIPD-OH
modifications: disulfide 3-11; N-terminus assumed
SMILES: CC[C@H](C)[C@H](NC(=O)CNC)C(=O)N[C@H]1CSSC[C@@H](C(=O)N[C@H](C(=O)N2CCC[C@H]2C(=O)N[C@@H](CC(=O)O)C(=O)O)[C@@H](C)CC)NC(=O)[C@H]([C@@H](C)CC)NC(=O)[C@@H]2CCCN2C(=O)[C@@H]2CCCN2C(=O)[C@H](CC(C)C)NC(=O)[C@H](CO)NC(=O)[C@H](CCCNC(=N)N)NC(=O)[C@H](CO)NC1=O

rat MASP1 IC50 [1]: 380 nM | rat MASP2 IC50 [2]: 29 nM
B6: Example 235: AIC+SRS-((2,5-Difluoro)F)-PPI-((N-Me)C)+IPD-NH2 (peptide)
peptide: AICSRS[Phe(2,5-diF)]PPI[NMeC]IPD-NH2
modifications: disulfide 3-11; N-terminus assumed
SMILES: CC[C@H](C)[C@H](NC(=O)[C@H](C)N)C(=O)N[C@H]1CSSC[C@@H](C(=O)N[C@H](C(=O)N2CCC[C@H]2C(=O)N[C@@H](CC(=O)O)C(N)=O)[C@@H](C)CC)N(C)C(=O)[C@H]([C@@H](C)CC)NC(=O)[C@@H]2CCCN2C(=O)[C@@H]2CCCN2C(=O)[C@H](Cc2cc(F)ccc2F)NC(=O)[C@H](CO)NC(=O)[C@H](CCCNC(=N)N)NC(=O)[C@H](CO)NC1=O

rat MASP1 IC50 [1]: 130 nM | rat MASP2 IC50 [2]: 42 nM
B7: Example 267: ((N-Me)G)-IC+SRS-((2S)-2-amino-3-(1-methylcyclopropyl)propanoic acid)-P-(Oic)-I-(Pen)+IP-NH2 (peptide)
peptide: [Sar]ICSRS[X13]P[Oic]I[Pen]IP-NH2
modifications: disulfide 3-11; N-terminus assumed
SMILES: CC[C@H](C)[C@H](NC(=O)CNC)C(=O)N[C@H]1CSSC(C)(C)[C@@H](C(=O)N[C@H](C(=O)N2CCC[C@H]2C(N)=O)[C@@H](C)CC)NC(=O)[C@H]([C@@H](C)CC)NC(=O)[C@@H]2C[C@@H]3CCCC[C@@H]3N2C(=O)[C@@H]2CCCN2C(=O)[C@H](CC2(C)CC2)NC(=O)[C@H](CO)NC(=O)[C@H](CCCNC(=N)N)NC(=O)[C@H](CO)NC1=O

rat MASP1 IC50 [1]: 120 nM | rat MASP2 IC50 [2]: 9.6 nM
B12: Example 269: (Tranexamic)-IC+SRS-((tBu)A)-PPI-(Pen)+IP-NH2 (peptide)
peptide: {Tranexamic″}-ICSRS[tBuAla]PPI[Pen]IP-NH2
modifications: disulfide 2-10
SMILES: CC[C@H](C)[C@@H]1NC(=O)[C@@H]2CCCN2C(=O)[C@@H]2CCCN2C(=O)[C@H](CC(C)(C)C)NC(=O)[C@H](CO)NC(=O)[C@H](CCCNC(=N)N)NC(=O)[C@H](CO)NC(=O)[C@@H](NC(=O)[C@@H](NC(=O)[C@H]2CC[C@@H](CN)CC2)[C@@H](C)CC)CSSC(C)(C)[C@@H](C(=O)N[C@H](C(=O)N2CCC[C@H]2C(N)=O)[C@@H](C)CC)NC1=O

rat MASP1 IC50 [1]: 88.7 nM | rat MASP2 IC50 [2]: 55.2 nM
B13: Example 271: ((N-Me)G)-IC+SRSLPPIC+IPD-NH2 (peptide)
peptide: [Sar]ICSRSLPPICIPD-NH2
modifications: disulfide 3-11; N-terminus assumed
SMILES: CC[C@H](C)[C@H](NC(=O)CNC)C(=O)N[C@H]1CSSC[C@@H](C(=O)N[C@H](C(=O)N2CCC[C@H]2C(=O)N[C@@H](CC(=O)O)C(N)=O)[C@@H](C)CC)NC(=O)[C@H]([C@@H](C)CC)NC(=O)[C@@H]2CCCN2C(=O)[C@@H]2CCCN2C(=O)[C@H](CC(C)C)NC(=O)[C@H](CO)NC(=O)[C@H](CCCNC(=N)N)NC(=O)[C@H](CO)NC1=O

More lines, now with the values behind:

B2: Example 226: (2-(3-Pyridyl)acetic acid)-IC+SRS-((tBu)A)-PPI-(Pen)+IP-NH2 (peptide)
peptide: {2‑(3-Pyridyl)acetic acid}-ICSRS[tBuAla]PPI[Pen]IP-NH2
modifications: disulfide 2-10
rat MASP1 IC50 [1]: 29 nM | rat MASP2 IC50 [2]: 2.9 nM

B3: Example 224: AIC+SRSLP-(Oic)-IC+IPD-NH2 (peptide)
peptide: AICSRSLP[Oic]ICIPD-NH2
modifications: disulfide 3-11; N-terminus assumed
SMILES: CC[C@H](C)[C@H](NC(=O)[C@H](C)N)C(=O)N[C@H]1CSSC[C@@H](C(=O)N[C@H](C(=O)N2CCC[C@H]2C(=O)N[C@@H](CC(=O)O)C(N)=O)[C@@H](C)CC)NC(=O)[C@H]([C@@H](C)CC)NC(=O)[C@@H]2C[C@@H]3CCCC[C@@H]3N2C(=O)[C@@H]2CCCN2C(=O)[C@H](CC(C)C)NC(=O)[C@H](CO)NC(=O)[C@H](CCCNC(=N)N)NC(=O)[C@H](CO)NC1=O
rat MASP1 IC50 [1]: 60.4 nM | rat MASP2 IC50 [2]: 42.4 nM

B5: Example 211: FIC+SRS-((tBu)A)-PPI-(Pen)+IPD-NH2 (peptide)
peptide: FICSRS[tBuAla]PPI[Pen]IPD-NH2
modifications: disulfide 3-11; N-terminus assumed
SMILES: CC[C@H](C)[C@H](NC(=O)[C@@H](N)Cc1ccccc1)C(=O)N[C@H]1CSSC(C)(C)[C@@H](C(=O)N[C@H](C(=O)N2CCC[C@H]2C(=O)N[C@@H](CC(=O)O)C(N)=O)[C@@H](C)CC)NC(=O)[C@H]([C@@H](C)CC)NC(=O)[C@@H]2CCCN2C(=O)[C@@H]2CCCN2C(=O)[C@H](CC(C)(C)C)NC(=O)[C@H](CO)NC(=O)[C@H](CCCNC(=N)N)NC(=O)[C@H](CO)NC1=O
rat MASP1 IC50 [1]: 75 nM | rat MASP2 IC50 [2]: 23 nM

B8: Example 197: ((N-Me)G)-IC+SRS-((2S)-2-amino-3-(1-methylcyclopropyl)propanoic acid)-PPI-(Pen)+IP-NH2 (peptide)
peptide: [Sar]ICSRS[X13]PPI[Pen]IP-NH2
modifications: disulfide 3-11; N-terminus assumed
SMILES: CC[C@H](C)[C@H](NC(=O)CNC)C(=O)N[C@H]1CSSC(C)(C)[C@@H](C(=O)N[C@H](C(=O)N2CCC[C@H]2C(N)=O)[C@@H](C)CC)NC(=O)[C@H]([C@@H](C)CC)NC(=O)[C@@H]2CCCN2C(=O)[C@@H]2CCCN2C(=O)[C@H](CC2(C)CC2)NC(=O)[C@H](CO)NC(=O)[C@H](CCCNC(=N)N)NC(=O)[C@H](CO)NC1=O
rat MASP1 IC50 [1]: 100 nM | rat MASP2 IC50 [2]: 15 nM

B9: Example 199: A-(Nva)-C+SRS-((tBu)A)-PPI-(Pen)+IPD-NH2 (peptide)
peptide: A[Nva]CSRS[tBuAla]PPI[Pen]IPD-NH2
modifications: disulfide 3-11; N-terminus assumed
SMILES: CCC[C@H](NC(=O)[C@H](C)N)C(=O)N[C@H]1CSSC(C)(C)[C@@H](C(=O)N[C@H](C(=O)N2CCC[C@H]2C(=O)N[C@@H](CC(=O)O)C(N)=O)[C@@H](C)CC)NC(=O)[C@H]([C@@H](C)CC)NC(=O)[C@@H]2CCCN2C(=O)[C@@H]2CCCN2C(=O)[C@H](CC(C)(C)C)NC(=O)[C@H](CO)NC(=O)[C@H](CCCNC(=N)N)NC(=O)[C@H](CO)NC1=O
rat MASP1 IC50 [1]: 180 nM | rat MASP2 IC50 [2]: 49 nM

B10: Example 208: (ACBA)-IC+SRS-((tBu)A)-PPI-(Pen)+I-NH2 (peptide)
peptide: [Ac4c]ICSRS[tBuAla]PPI[Pen]I-NH2
modifications: disulfide 3-11; N-terminus assumed
SMILES: CC[C@H](C)[C@H](NC(=O)[C@H]1NC(=O)[C@H]([C@@H](C)CC)NC(=O)[C@@H]2CCCN2C(=O)[C@@H]2CCCN2C(=O)[C@H](CC(C)(C)C)NC(=O)[C@H](CO)NC(=O)[C@H](CCCNC(=N)N)NC(=O)[C@H](CO)NC(=O)[C@@H](NC(=O)[C@@H](NC(=O)C2(N)CCC2)[C@@H](C)CC)CSSC1(C)C)C(N)=O
rat MASP1 IC50 [1]: 61 nM | rat MASP2 IC50 [2]: 8.6 nM

B11: Example 232: ((N-Me)G)-IC+SRSLPPI-((N-Me)C)+IPD-OH (peptide)
peptide: [Sar]ICSRSLPPI[NMeC]IPD-OH
modifications: disulfide 3-11; N-terminus assumed
SMILES: CC[C@H](C)[C@H](NC(=O)CNC)C(=O)N[C@H]1CSSC[C@@H](C(=O)N[C@H](C(=O)N2CCC[C@H]2C(=O)N[C@@H](CC(=O)O)C(=O)O)[C@@H](C)CC)N(C)C(=O)[C@H]([C@@H](C)CC)NC(=O)[C@@H]2CCCN2C(=O)[C@@H]2CCCN2C(=O)[C@H](CC(C)C)NC(=O)[C@H](CO)NC(=O)[C@H](CCCNC(=N)N)NC(=O)[C@H](CO)NC1=O
rat MASP1 IC50 [1]: 67.3 nM | rat MASP2 IC50 [2]: 125 nM

B14: Example 207: ((N-Me)G)-IC+SRS-((tBu)A)-PPI-(Pen)+IP-(PEG1(10 atoms))-NH2 (peptide)
peptide: [Sar]ICSRS[tBuAla]PPI[Pen]IP-{PEG2-NH2}
modifications: disulfide 3-11
rat MASP1 IC50 [1]: 43 nM | rat MASP2 IC50 [2]: 33.6 nM

B15: Example 212: GIC+SRS-((tBu)A)-P-(Oic)-I-((N-Me)C)+IPD-NH2 (peptide)
peptide: GICSRS[tBuAla]P[Oic]I[NMeC]IPD-NH2
modifications: disulfide 3-11; N-terminus assumed
SMILES: CC[C@H](C)[C@H](NC(=O)CN)C(=O)N[C@H]1CSSC[C@@H](C(=O)N[C@H](C(=O)N2CCC[C@H]2C(=O)N[C@@H](CC(=O)O)C(N)=O)[C@@H](C)CC)N(C)C(=O)[C@H]([C@@H](C)CC)NC(=O)[C@@H]2C[C@@H]3CCCC[C@@H]3N2C(=O)[C@@H]2CCCN2C(=O)[C@H](CC(C)(C)C)NC(=O)[C@H](CO)NC(=O)[C@H](CCCNC(=N)N)NC(=O)[C@H](CO)NC1=O
rat MASP1 IC50 [1]: 24.6 nM | rat MASP2 IC50 [2]: 34.5 nM
